Reference: article doi:10.1101/416032

Biological target: BG505.SOSIP.664-AviB (HIV-1 (clade A, BG505)) (UniProt Q2N0S6)
Test: BLI

Substance | Kd
BF520.1 matureVHnaïveVK mAb (antibody) | 8.95 nM
BF520.1 naïveVHmatureVK mAb (antibody) | < 0.001 nM
